From US20090048164A1
Where two headings read alike, the source gives them in different places.

Tests used:
[1] = target: mouse Mcl-1 with truncations of 151 amino acid residues at its N-terminus and 23 residues at its C-terminus (mouse) (UniProt P97287); experiment: competition phage ELISA
[2] = target: Recombinant human Bcl-xL with a 25 amino acid truncation of its C-terminus (human) (UniProt Q07817); experiment: competition phage ELISA
Bcl-w [3] = experiment: Biacore competition vs immobilised BimBH3
Chain of Bcl-w (Q92843 1-164): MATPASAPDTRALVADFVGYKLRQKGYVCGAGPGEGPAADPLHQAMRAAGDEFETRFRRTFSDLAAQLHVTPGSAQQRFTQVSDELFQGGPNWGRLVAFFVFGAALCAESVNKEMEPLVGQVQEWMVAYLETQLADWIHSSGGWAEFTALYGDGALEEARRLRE

[4] = target: mouse Mcl-1 with truncations of 151 amino acid residues at its N-terminus and 23 residues at its C-terminus (mouse) (UniProt P97287); experiment: Biacore competition vs immobilised BimBH3
A1 [5] = experiment: Biacore competition vs immobilised BimBH3
[6] = target: Recombinant human Bcl-xL with a 25 amino acid truncation of its C-terminus (human) (UniProt Q07817); experiment: Biacore competition vs immobilised BimBH3
Bcl-2 [7] = experiment: Biacore competition vs immobilised BimBH3
Chain of Bcl-2 (P10415 1-217): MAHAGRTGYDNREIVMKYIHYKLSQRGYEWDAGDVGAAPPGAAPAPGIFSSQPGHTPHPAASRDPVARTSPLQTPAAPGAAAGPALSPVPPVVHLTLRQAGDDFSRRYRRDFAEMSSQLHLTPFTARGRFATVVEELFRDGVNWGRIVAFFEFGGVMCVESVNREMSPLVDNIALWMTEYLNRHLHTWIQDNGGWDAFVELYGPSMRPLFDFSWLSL

Bcl-w [8] = experiment: Biacore competition, synthetic peptides; against wild-type BimBH3 peptide
[9] = target: mouse Mcl-1 with truncations of 151 amino acid residues at its N-terminus and 23 residues at its C-terminus (mouse) (UniProt P97287); experiment: as above
A1 [10] = experiment: as above
[11] = target: Recombinant human Bcl-xL with a 25 amino acid truncation of its C-terminus (human) (UniProt Q07817); experiment: as above
Bcl-2 [12] = experiment: as above
Bcl-w [13] = experiment: competition phage ELISA
Bcl-2 [14] = experiment: competition phage ELISA
[15] = target: Recombinant human Bcl-xL with a 25 amino acid truncation of its C-terminus (human) (UniProt Q07817); experiment: competition phage ELISA; remark: listed apart in the source
[16] = target: Recombinant human Bcl-xL with a 25 amino acid truncation of its C-terminus (human) (UniProt Q07817); experiment: Bim BH3 substitution scan
[17] = target: mouse Mcl-1 with truncations of 151 amino acid residues at its N-terminus and 23 residues at its C-terminus (mouse) (UniProt P97287); experiment: Biacore competition, synthetic peptides
A1 [18] = experiment: Biacore competition, synthetic peptides
pro-survival proteins = experiment: cell-based or functional assay

Chain of Recombinant human Bcl-xL with a 25 amino acid truncation of its C-terminus (human) (Q07817 1-208): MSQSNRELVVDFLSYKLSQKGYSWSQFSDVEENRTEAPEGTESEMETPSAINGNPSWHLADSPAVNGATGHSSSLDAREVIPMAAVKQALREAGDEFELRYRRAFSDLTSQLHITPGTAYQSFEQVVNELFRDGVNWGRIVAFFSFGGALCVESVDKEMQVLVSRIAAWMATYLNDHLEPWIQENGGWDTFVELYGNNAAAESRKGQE
Chain of mouse Mcl-1 with truncations of 151 amino acid residues at its N-terminus and 23 residues at its C-terminus (mouse) (P97287 152-308): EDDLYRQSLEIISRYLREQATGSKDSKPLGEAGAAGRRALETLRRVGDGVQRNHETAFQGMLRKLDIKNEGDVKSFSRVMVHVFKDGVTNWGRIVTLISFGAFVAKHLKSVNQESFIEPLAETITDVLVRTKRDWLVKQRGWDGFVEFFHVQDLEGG

Row | Substance | Fold/wt [1] [fold] | IC50 [1] [µM] | Fold/wt [2] [fold] | IC50 [2] [µM] | further results
1 | Bim BH3 A21E, phage-displayed (peptide) | 2 | 0.016 | 1 | 0.003 | 
2 | Bim BH3 E18A, phage-displayed (peptide) | 9 | 0.08 | 3 | 0.008 | 
3 | Bim BH3 Y22A, phage-displayed (peptide) | 1 | 0.012 | 1 | 0.004 | 
4 | Bim BH3 D1A, phage-displayed (peptide) | 1 | 0.01 | 1 | 0.003 | 
5 | BimBH3 D17A synthetic peptide |  |  |  |  | Fold/wt BimBH3 (Bcl-w [3]): 30 fold; Fold/wt BimBH3 [4]: 2 fold; Fold/wt BimBH3 (A1 [5]): 1 fold; Fold/wt BimBH3 [6]: 3 fold; Fold/wt BimBH3 (Bcl-2 [7]): 4 fold
6 | BimBH3 F19A synthetic peptide |  |  |  |  | Fold/wt BimBH3 (Bcl-w [3]): 8 fold; Fold/wt BimBH3 [4]: 1 fold; Fold/wt BimBH3 (A1 [5]): 1 fold; Fold/wt BimBH3 (Bcl-2 [7]): 3 fold; fold decrease in binding affinity (Bcl-w [8]): 8 fold; fold decrease in binding affinity [9]: < 3 fold; fold decrease in binding affinity (A1 [10]): < 3 fold; fold decrease in binding affinity [11]: < 3 fold; fold decrease in binding affinity (Bcl-2 [12]): < 3 fold
7 | BimBH3 I8A synthetic peptide |  |  |  |  | Fold/wt BimBH3 (Bcl-w [3]): 2 fold; Fold/wt BimBH3 [4]: 1 fold; Fold/wt BimBH3 (A1 [5]): 1 fold; Fold/wt BimBH3 [6]: 1 fold; Fold/wt BimBH3 (Bcl-2 [7]): 3 fold
8 | Bim BH3 P4A, phage-displayed (peptide) | 1 | 0.012 | 1 | 0.003 | 
9 | Bim BH3 G16E, phage-displayed (peptide) | 3 | 0.027 |  |  | fold effect on binding [1]: 38 fold
10 | Bim BH3 Q10A, phage-displayed (peptide) | 1 | 0.01 | 1 | 0.004 | 
11 | Bim BH3 F19A, phage-displayed (peptide) |  | 0.016 | 24 | 0.069 | Fold/wt (Bcl-w [13]): 18 fold; IC50 (Bcl-w [13]): 0.364 µM; IC50 (Bcl-2 [14]): 0.011 µM; IC50 [15]: 0.06 µM; fold weaker than wild-type BimBH3 [15]: 20 fold
12 | Bim BH3 A24E, phage-displayed (peptide) | 1 | 0.008 | 1 | 0.002 | 
13 | Bim BH3 L12W, phage-displayed (peptide) |  |  |  |  | fold decrease in binding affinity [16]: 22 fold
14 | Bim BH3 L12F, phage-displayed (peptide) |  |  |  |  | fold decrease in binding affinity [16]: 5 fold
15 | Bim BH3 I6A, phage-displayed (peptide) | 1 | 0.011 | 3 | 0.008 | 
16 | Bim BH3 E5A, phage-displayed (peptide) | 1 | 0.01 | 1 | 0.003 | 
17 | BimBH3 L12A + F19A synthetic peptide |  |  |  |  | Fold/wt BimBH3 [4]: 1 fold; Fold/wt BimBH3 (A1 [5]): 120 fold; Fold/wt BimBH3 [6]: > 1560 fold
18 | BimBH3 I15A synthetic peptide |  |  |  |  | Fold/wt BimBH3 (Bcl-w [3]): 1 fold; Fold/wt BimBH3 [4]: 2 fold; Fold/wt BimBH3 (A1 [5]): 2 fold; Fold/wt BimBH3 [6]: 1 fold; Fold/wt BimBH3 (Bcl-2 [7]): 2 fold
19 | BimBH3 L12A synthetic peptide |  |  |  |  | Fold/wt BimBH3 (Bcl-w [3]): 31 fold; Fold/wt BimBH3 [4]: 1 fold; Fold/wt BimBH3 (A1 [5]): 17 fold; Fold/wt BimBH3 [6]: 11 fold; Fold/wt BimBH3 (Bcl-2 [7]): 43 fold; fold decrease in binding affinity [17]: 2 fold; fold decrease in binding affinity (A1 [18]): 7 fold
20 | mNoxaA BH3 D26A, phage-displayed (peptide) | 2 | 0.062 |  |  | 
21 | Bim BH3 Y23A, phage-displayed (peptide) | 1 | 0.012 | 1 | 0.004 | 
22 | wild-type full-length BimS |  |  |  |  | % viability in wild-type MEFs (pro-survival proteins): 19%

Row | Substance | Fold/wt [1] [fold] | IC50 [1] [µM] | Fold/wt [2] [fold] | IC50 [2] [µM] | further results
23 | Bim BH3 R14A, phage-displayed (peptide) | 1 | 0.01 | 2 | 0.005 | 
24 | Bim BH3 A9E, phage-displayed (peptide) | 3 | 0.032 |  |  | 
25 | Bim BH3 R26A, phage-displayed (peptide) | 1 | 0.008 | 1 | 0.004 | 
26 | Bim BH3 I8A, phage-displayed (peptide) | 1 | 0.009 | 2 | 0.007 | Fold/wt (Bcl-w [13]): 4 fold; IC50 (Bcl-w [13]): 0.074 µM; Fold/wt (Bcl-2 [14]): 3 fold; IC50 (Bcl-2 [14]): 0.017 µM
27 | Bim BH3 I15A, phage-displayed (peptide) | 1 | 0.01 | 1 | 0.002 | Fold/wt (Bcl-w [13]): 1 fold; IC50 (Bcl-w [13]): 0.018 µM; Fold/wt (Bcl-2 [14]): 1 fold; IC50 (Bcl-2 [14]): 0.007 µM
28 | Bim BH3 D17A, phage-displayed (peptide) | 28 | 0.256 |  |  | fold effect on binding [1]: 15 fold
29 | Bim BH3 L12A, phage-displayed (peptide) | 1 | 0.01 | 43 | 0.124 | fold decrease in affinity [16]: 50 to 80 fold; Fold/wt (Bcl-w [13]): 24 fold; IC50 (Bcl-w [13]): 0.486 µM; IC50 [15]: 0.13 µM; fold weaker than wild-type BimBH3 [15]: 50 fold
30 | BimS A9E |  |  |  |  | % viability in wild-type MEFs (pro-survival proteins): 55%
31 | BimBH3 A9E synthetic peptide |  |  |  |  | Fold/wt BimBH3 (Bcl-w [3]): 34 fold; Fold/wt BimBH3 [4]: 2 fold; Fold/wt BimBH3 (A1 [5]): 7 fold; Fold/wt BimBH3 [6]: 68 fold; Fold/wt BimBH3 (Bcl-2 [7]): 56 fold
32 | Bim BH3 R13A, phage-displayed (peptide) | 1 | 0.013 | 1 | 0.004 | 
33 | Bim BH3 W7A, phage-displayed (peptide) | 1 | 0.01 | 1 | 0.003 | 
34 | Bim BH3 R25A, phage-displayed (peptide) | 1 | 0.008 | 1 | 0.002 | 
35 | BimBH3 G16E synthetic peptide |  |  |  |  | Fold/wt BimBH3 (Bcl-w [3]): > 256 fold; Fold/wt BimBH3 [4]: 18 fold; Fold/wt BimBH3 (A1 [5]): 260 fold; Fold/wt BimBH3 [6]: 83 fold; Fold/wt BimBH3 (Bcl-2 [7]): 306 fold
36 | BimS G16E |  |  |  |  | % viability in wild-type MEFs (pro-survival proteins): 93%
37 | Bim BH3 M2A, phage-displayed (peptide) | 1 | 0.013 | 2 | 0.004 | 
38 | Bim BH3 E11A, phage-displayed (peptide) | 1 | 0.01 | 1 | 0.004 | 
39 | Bim BH3 N20A, phage-displayed (peptide) | 1 | 0.007 | 2 | 0.005 | 
40 | Bim BH3 R3A, phage-displayed (peptide) | 1 | 0.009 | 1 | 0.003 | 
41 | BimS F19A |  |  |  |  | % viability in wild-type MEFs (pro-survival proteins): 22%
42 | BimS L12A |  |  |  |  | % viability in wild-type MEFs (pro-survival proteins): 57%
43 | Bim BH3 L12V, phage-displayed (peptide) |  |  |  |  | fold decrease in affinity [16]: 50 to 80 fold
